Measured values taken from ChEMBL document CHEMBL1275523.

Tests used:
Format in all cases: cell-based
[1] = substrate: CC(=O)N[C@H]1[C@H]([C@H](O)[C@H](O)CO)O[C@@](Oc2ccc3c(C)cc(=O)oc3c2)(C(=O)O)C[C@@H]1O; test: Activity of human NEU2 expressed in HEK293 cells by fluorometric high-performance liquid chromatography
[2] = substrate: CCCCCCCCCCCCC/C=C/[C@@H](O)[C@H](CO[C@@H]1O[C@H](CO)[C@@H](O[C@@H]2O[C@H](CO)[C@H](O)[C@H](O[C@]3(C(=O)O)C[C@H](O)[C@@H](NC(C)=O)[C@H]([C@H](O)[C@H](O)CO)O3)[C@H]2O)[C@H](O)[C@H]1O)NC(=O)CCCCCCCCCCCCCCCCCCCCCC; test: Activity of human NEU3 expressed in HEK293 cells by fluorometric high-performance liquid chromatography
[3] = substrate: CC(=O)N[C@H]1[C@H]([C@H](O)[C@H](O)CO)O[C@@](Oc2ccc3c(C)cc(=O)oc3c2)(C(=O)O)C[C@@H]1O; test: Activity of human NEU4 expressed in HEK293 cells by fluorometric high-performance liquid chromatography

B1: Sialidase-2 (Homo sapiens), Q9Y3R4 (protein)
chain: MASLPVLQKESVFQSGAHAYRIPALLYLPGQQSLLAFAEQRASKKDEHAELIVLRRGDYDAPTHQVQWQAQEVVAQARLDGHRSMNPCPLYDAQTGTLFLFFIAIPGQVTEQQQLQTRANVTRLCQVTSTDHGRTWSSPRDLTDAAIGPAYREWSTFAVGPGHCLQLHDRARSLVVPAYAYRKLHPIQRPIPSAFCFLSHDHGRTWARGHFVAQDTLECQVAEVETGEQRVVTLNARSHLRARVQAQSTNDGLDFQESQLVKKLVEPPPQGCQGSVISFPSPRSGPGSPAQWLLYTHPTHSWQRADLGAYLNPRPPAPEAWSEPVLLAKGSCAYSDLQSMGTGPDGSPLFGCLYEANDYEEIVFLMFTLKQAFPAEYLPQ
Km [1]: 1800 µM

B2: Sialidase-3 (Homo sapiens), Q9UQ49 (protein)
chain: MEEVTTCSFNSPLFRQEDDRGITYRIPALLYIPPTHTFLAFAEKRSTRRDEDALHLVLRRGLRIGQLVQWGPLKPLMEATLPGHRTMNPCPVWEQKSGCVFLFFICVRGHVTERQQIVSGRNAARLCFIYSQDAGCSWSEVRDLTEEVIGSELKHWATFAVGPGHGIQLQSGRLVIPAYTYYIPSWFFCFQLPCKTRPHSLMIYSDDLGVTWHHGRLIRPMVTVECEVAEVTGRAGHPVLYCSARTPNRCRAEALSTDHGEGFQRLALSRQLCEPPHGCQGSVVSFRPLEIPHRCQDSSSKDAPTIQQSSPGSSLRLEEEAGTPSESWLLYSHPTSRKQRVDLGIYLNQTPLEAACWSRPWILHCGPCGYSDLAALEEEGLFGCLFECGTKQECEQIAFRLFTHREILSHLQGDCTSPGRNPSQFKSN
Km [2]: 45.6 µM

B3: Sialidase-4 (Homo sapiens), Q8WWR8 (protein)
chain: MGVPRTPSRTVLFERERTGLTYRVPSLLPVPPGPTLLAFVEQRLSPDDSHAHRLVLRRGTLAGGSVRWGALHVLGTAALAEHRSMNPCPVHDAGTGTVFLFFIAVLGHTPEAVQIATGRNAARLCCVASRDAGLSWGSARDLTEEAIGGAVQDWATFAVGPGHGVQLPSGRLLVPAYTYRVDRRECFGKICRTSPHSFAFYSDDHGRTWRCGGLVPNLRSGECQLAAVDGGQAGSFLYCNARSPLGSRVQALSTDEGTSFLPAERVASLPETAWGCQGSIVGFPAPAPNRPRDDSWSVGPGSPLQPPLLGPGVHEPPEEAAVDPRGGQVPGGPFSRLQPRGDGPRQPGPRPGVSGDVGSWTLALPMPFAAPPQSPTWLLYSHPVGRRARLHMGIRLSQSPLDPRSWTEPWVIYEGPSGYSDLASIGPAPEGGLVFACLYESGARTSYDEISFCTFSLREVLENVPASPKPPNLGDKPRGCCWPS
Km [3]: 20.3 µM
